Results on one protein are retold here after paper PMC4954776 (Nature chemical biology, 2013).

Read-outs that look alike come from different tables or passages of the source.

The Kd is the equilibrium constant for the complex coming apart.

Data set [1] deals with the molecule itself. The experiment in a line: AUC.
Data set [2] concerns the molecule itself. The data set can be described thus: AUC. This is another data set of the same source.

B1: BRAF^444-723 kinase domain with 16 solubilization mutations (domain or fragment)
chain: RDSSDDWEIPDGQITVGQRIGSGSFGTVYKGKWHGDVAVKMLNVTAPTPQQLQAFKNEVGVLRKTRHVNILLFMGYSTKPQLAIVTQWCEGSSLYHHLHASETKFEMKKLIDIARQTARGMDYLHAKSIIHRDLKSNNIFLHEDNTVKIGDFGLATVKSRWSGSHQFEQLSGSILWMAPEVIRMQDSNPYSFQSDVYAFGIVLYELMTGQLPYSNINNRDQIIEMVGRGSLSPDLSKVRSNCPKRMKRLMAECLKKKRDERPSFPRILAEIEELARELSG
With B1, the equilibrium dissociation constant (Kd) in the data set “AUC [1]” is < 0.78 µM; in “AUC [2]”, > 25 µM.
